Source: PMC3839849
Read-outs that look alike come from different tables or passages of the source.

Assays:
Assay in all cases: ITC
[1] = molecular target: CaV1.2 IQ domain (Homo sapiens) (UniProt Q13936)
[2] = molecular target: CaV1.2 IQ domain TripleA mutant (CaV1.2 F1618A, F1619A, Y1622A) (human)
[3] = molecular target: CaV1.2 IQ domain TripleA mutant (CaV1.2 F1618A, F1619A, Y1622A) (human); remark: listed apart in the source
[4] = molecular target: CaV1.2 IQ domain (human)

Substance | Kd [1] | Kd [2] | Kd [3] | dH [3] | stoichiometry N [3] | Kd [4] | dH [4]
CaBP1 N-lobe, Q9NZU7 | 1100 nM |  |  |  |  |  | 
calcium binding protein 1 (CaBP1) Δ2–15 (natural protein) |  | 221 nM | 10.9 nM | -4.77 kcal/mol | 0.89 |  | 
calmodulin (CaM), full-length (from UniProt P0DP23 1-149) (natural protein) |  |  |  | -10.6 kcal/mol |  | 0.00085 nM | -5.74 kcal/mol
